From article PMC2861366 (Biochemistry, 2010) come the findings set out here.

The labels stand for the following.
B1: E. coli PriA helicase (enzyme, UniProt P17888 1-732, looked up)
chain: MPVAHVALPVPLPRTFDYLLPEGMTVKAGCRVRVPFGKQQERIGIVVSVSDASELPLNELKAVVEVLDSEPVFTHSVWRLLLWAADYYHHPIGDVLFHALPILLRQGRPAANAPMWYWFATEQGQAVDLNSLKRSPKQQQALAALRQGKIWRDQVATLEFNDAALQALRKKGLCDLASETPEFSDWRTNYAVSGERLRLNTEQATAVGAIHSAADTFSAWLLAGVTGSGKTEVYLSVLENVLAQGKQALVMVPEIGLTPQTIARFRERFNAPVEVLHSGLNDSERLSAWLKAKNGEAAIVIGTRSALFTPFKNLGVIVIDEEHDSSYKQQEGWRYHARDLAVYRAHSEQIPIILGSATPALETLCNVQQKKYRLLRLTRRAGNARPAIQHVLDLKGQKVQAGLAPALITRMRQHLQADNQVILFLNRRGFAPALLCHDCGWIAECPRCDHYYTLHQAQHHLRCHHCDSQRPVPRQCPSCGSTHLVPVGLGTEQLEQTLAPLFPGVPISRIDRDTTSRKGALEQQLAEVHRGGARILIGTQMLAKGHHFPDVTLVALLDVDGALFSADFRSAERFAQLYTQVAGRAGRAGKQGEVVLQTHHPEHPLLQTLLYKGYDAFAEQALAERRMMQLPPWTSHVIVRAEDHNNQHAPLFLQQLRNLILSSPLADEKLWVLGPVPALAPKRGGRWRWQILLQHPSRVRLQHIINGTLALINTIPDSRKVKWVLDVDPIEG

Experiment [1] addresses E. coli single stranded DNA binding (SSB) protein (E. coli, UniProt P0AGE0 1-178). Briefly: AUC.
Experiment [2] addresses B1. Briefly: ITC. For orientation: In ITC the heat of successive injections is recorded.
For experiment [3], the target named is T1, χ subunit of DNA polymerase III holoenzyme (E. coli, UniProt P28905 1-147). Briefly: ITC.
The target of experiment [4] is B1. Briefly: ITC. This is another data set of the same source.
Experiment [5] deals with T1, χ subunit of DNA polymerase III …. Briefly: ITC. The source holds these as a separate data set.
In experiment [6] the target is B1. Description: ITC. The source holds these as a separate data set.
For experiment [7], the target named is T1, χ subunit of DNA polymerase III …. Briefly: ITC. This is another data set of the same source.
Experiment [8] has as its target B1. Description: ITC. The source holds these as a separate data set.
Experiment [9] has as its target B1. Briefly: ITC. This is another data set of the same source.
For experiment [10], the target named is B1. Description: ITC. This is another data set of the same source.
The target of experiment [11] is T1, χ subunit of DNA polymerase III …. Description: ITC. The source holds these as a separate data set.

A word on the stoichiometry N: it is the number of molecules, sites or subunits per partner or assembly.

Several values for one entry are separate records, joined by “and”; a condition that tells them apart may be missing. Identical values can stand only once. Like-named read-outs stand apart in the source and are kept apart here.

T1 sequence (P28905 whole entry): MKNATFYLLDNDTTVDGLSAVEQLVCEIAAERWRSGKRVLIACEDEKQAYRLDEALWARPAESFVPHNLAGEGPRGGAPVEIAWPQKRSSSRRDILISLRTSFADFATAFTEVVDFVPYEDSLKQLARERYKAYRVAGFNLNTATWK
Sequence of E. coli single stranded DNA binding (SSB) protein (P0AGE0 whole entry): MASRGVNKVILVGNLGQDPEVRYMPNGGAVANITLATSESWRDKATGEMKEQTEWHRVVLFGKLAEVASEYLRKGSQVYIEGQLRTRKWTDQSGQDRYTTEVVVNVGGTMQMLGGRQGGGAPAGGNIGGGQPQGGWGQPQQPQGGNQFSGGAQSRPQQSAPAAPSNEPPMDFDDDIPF

For the molecule B1, the “stoichiometry N” value in experiment [1] is no less than 3.
WMDFDDDIPF [WP9, modified P9 peptide containing a Trp residue on the N terminal side]: the Ka with E. coli PriA helicase [2] stood at 1.6e+06 M⁻¹; in experiment [3], 1.2e+06 M⁻¹; with E. coli PriA helicase [4] it was 230000 M⁻¹; in [5], 300000 M⁻¹; in the experiment with E. coli PriA helicase [6], 3.4e+06 M⁻¹; in experiment [7] it was 1.6e+06 M⁻¹. Also, the Ka in the experiment with E. coli PriA helicase [8] was 410000 M⁻¹ and 404000 M⁻¹; in the experiment with E. coli PriA helicase [9], 225000 M⁻¹. Besides, the dH with E. coli PriA helicase [2] was -14.5 ± 0.5 kcal/mol; in experiment [3] it was -8 ± 0.3 kcal/mol; in the experiment with E. coli PriA helicase [4], -13 ± 1.3 kcal/mol; in [5], -9.2 ± 0.4 kcal/mol; with E. coli PriA helicase [6], -17.6 ± 0.2 kcal/mol; in the experiment with E. coli PriA helicase [8], -13.9 kcal/mol and -14.4 kcal/mol. This molecule came in with a dH with E. coli PriA helicase [9] of -13.7 ± 0.2 kcal/mol. Also, the “stoichiometry N” value with E. coli PriA helicase [2] was 0.95 ± 0.02; in experiment [3], 1.02 ± 0.03; with E. coli PriA helicase [4], 1.1 ± 0.1; in experiment [5], 0.96 ± 0.03; in the experiment with E. coli PriA helicase [8], 0.91 ± 0.11; with E. coli PriA helicase [9] it was 1.01 ± 0.1.
For PSNEPPMDFDDDIPF [P15, synthetic peptide of the last 15 amino acids of the SSB C-terminus], the Ka came out at 2.7e+06 M⁻¹ with E. coli PriA helicase [2]; 1.5e+06 M⁻¹ in experiment [3]; 360000 M⁻¹ with E. coli PriA helicase [4]; 1.6e+06 M⁻¹ with E. coli PriA helicase [10]; 800000 M⁻¹ in experiment [11]. For the same molecule, the dH in the experiment with E. coli PriA helicase [2] is -20.7 ± 0.8 kcal/mol; in experiment [3], -9.5 ± 0.3 kcal/mol; with E. coli PriA helicase [4], -14 ± 0.6 kcal/mol; with E. coli PriA helicase [10] it was -7 ± 0.5 kcal/mol; in experiment [11], -7.7 ± 0.4 kcal/mol. Moreover, the “stoichiometry N” value in the experiment with E. coli PriA helicase [2] was 0.9 ± 0.02; in experiment [3], 0.91 ± 0.02; with E. coli PriA helicase [4], 0.92 ± 0.03; with E. coli PriA helicase [10] it was 1.03 ± 0.06; in [11] it was 0.88 ± 0.04.
Regarding MDFDDDIPF [P9, synthetic peptide of the last 9 amino acids of the SSB C-terminus], the Ka is 1.6e+06 M⁻¹ in experiment [3], 180000 M⁻¹ in the experiment with E. coli PriA helicase [4], 2e+06 M⁻¹ with E. coli PriA helicase [10] and 800000 M⁻¹ in experiment [11]. The dH in [3] is -7.9 ± 0.4 kcal/mol; with E. coli PriA helicase [4] it was -17.3 ± 0.6 kcal/mol; with E. coli PriA helicase [10], -6.7 ± 0.3 kcal/mol; in experiment [11], -8.2 ± 0.4 kcal/mol. Also, the “stoichiometry N” value in [3] turned out to be 1 ± 0.1; with E. coli PriA helicase [4], 0.81 ± 0.12; in the experiment with E. coli PriA helicase [10], 0.89 ± 0.05; in experiment [11], 0.92 ± 0.04.
